The results in this text go back to US20240254201A1.

The experiment has as its target EBOV GP on EBOV-eGFP-Mayinga authentic virus (Ebola virus (EBOV), Mayinga) (UniProt Q05320). The experiment can be described thus: cell-based or functional assay.

Sequence of EBOV GP on EBOV-eGFP-Mayinga authentic virus (Ebola virus (EBOV), Mayinga) (Q05320 33-676 limits assumed): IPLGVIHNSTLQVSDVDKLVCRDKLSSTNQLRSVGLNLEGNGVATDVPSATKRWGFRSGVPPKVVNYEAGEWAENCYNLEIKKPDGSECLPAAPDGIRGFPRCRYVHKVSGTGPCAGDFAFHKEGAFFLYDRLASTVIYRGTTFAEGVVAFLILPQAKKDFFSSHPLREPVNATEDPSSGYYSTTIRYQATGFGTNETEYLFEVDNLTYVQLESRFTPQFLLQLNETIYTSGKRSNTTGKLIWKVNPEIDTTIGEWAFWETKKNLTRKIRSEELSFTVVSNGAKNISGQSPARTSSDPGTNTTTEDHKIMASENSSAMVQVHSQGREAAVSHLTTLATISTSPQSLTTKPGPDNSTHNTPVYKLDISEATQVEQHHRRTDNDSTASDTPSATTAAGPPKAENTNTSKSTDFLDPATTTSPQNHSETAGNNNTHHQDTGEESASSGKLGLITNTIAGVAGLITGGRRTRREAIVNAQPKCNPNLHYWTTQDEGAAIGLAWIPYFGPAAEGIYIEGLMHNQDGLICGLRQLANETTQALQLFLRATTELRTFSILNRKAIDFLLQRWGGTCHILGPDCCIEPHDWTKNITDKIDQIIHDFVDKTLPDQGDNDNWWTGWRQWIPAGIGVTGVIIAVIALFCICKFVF

Substance CA45 (antibody) came in with an IC50, EBOV-eGFP-Mayinga authentic virus neutralization test of 8.51 µg/mL and an IC90, EBOV-eGFP-Mayinga authentic virus neutralization test of 13 µg/mL.
